Consider one molecule from PMC11707362, “Endothelial-secreted Endocan activates PDGFRA and regulates vascularity and spatial phenotype in glioblastoma” (Nature Communications, 2025).

For experiment [1], the target named is T1, Fc-tagged recombinant PDGFRA monomeric fragment (human, UniProt P16234 24-528).
T1 construct: PDGFRA (platelet-derived growth factor receptor alpha), human, recombinant 'monomeric fragment'; also called Fc-PDGFRA monomeric fragment; Fc-tagged rPDGFRA; source: bought: R&D
The experiment is described as follows: SPR; Biacore T200, CM5 chip, amine coupling, hPDGFRA immobilised, Endocan as analyte; HBS-EP (0.15 M NaCl, 3 mM EDTA, 0.005% P20, 0.01 M Hepes pH 7.4), 30 ul/min; KD = koff/kon at five concentrations; repeated with 1 and 10 ug/ml heparin without effect. The conditions noted are these: both partners purified.

The target in experiment [2] is T2, Fc-tagged recombinant PDGFRA monomeric fragment (human, UniProt P16234 24-528).
T2 chain: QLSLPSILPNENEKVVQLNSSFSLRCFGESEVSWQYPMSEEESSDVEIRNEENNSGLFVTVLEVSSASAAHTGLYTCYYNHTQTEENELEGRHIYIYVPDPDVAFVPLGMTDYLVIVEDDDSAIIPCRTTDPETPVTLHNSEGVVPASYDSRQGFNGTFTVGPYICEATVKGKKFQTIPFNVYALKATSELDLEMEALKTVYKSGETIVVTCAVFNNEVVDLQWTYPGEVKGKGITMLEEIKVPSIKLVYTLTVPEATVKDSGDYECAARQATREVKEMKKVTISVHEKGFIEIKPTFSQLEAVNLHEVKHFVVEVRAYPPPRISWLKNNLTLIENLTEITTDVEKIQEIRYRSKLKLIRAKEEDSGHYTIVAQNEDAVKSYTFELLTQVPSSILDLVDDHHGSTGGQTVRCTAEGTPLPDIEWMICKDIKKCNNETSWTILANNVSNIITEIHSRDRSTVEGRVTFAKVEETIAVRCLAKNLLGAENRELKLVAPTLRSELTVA
The experiment is described as follows: SPR.

B1: recombinant His-tagged Endocan (ligand, UniProt Q9NQ30 20-184, looked up)
chain: WSNNYAVDCPQHCDSSECKSSPRCKRTVLDDCGCCRVCAAGRGETCYRTVSGMDGMKCGPGLRCQPSNGEDPFGEEFGICKDCPYGTFGMDCRETCNCQSGICDRGTGKCLKFPFFQYSVTKSSNRFVSLTEHDMASGDGNIVREEVVKENAAGSPVMRKWLNPR
notes: Endocan (ESM1 gene product), recombinant; the introduction describes the mature polypeptide as 165 amino acids; also called rEndocan; His6-Endocan; source: bought: R&D
On to B1, for which the Kd in experiment [1] came to 345 nM. Further, the dissociation rate constant (koff) in experiment [2] is 0.045 s⁻¹.
